Patent US20160237154A1 (SORRENTO THERAPEUTICS, published 2016)

Experiments:
[1] = molecular target: T1, recombinant human CTLA4 (as human Fc fusion) (human, UniProt P16410 37-162, limits assumed); assay: blocking ELISA: serially diluted IgG pre-mixed with recombinant human CTLA4-Fc, transferred to a Ni-NTA plate coated with His-tagged human CD80 (the blocked ligand); HRP anti-human Fc, OD 450
T1 construct: not shown: human Fc
T1 sequence (looked up): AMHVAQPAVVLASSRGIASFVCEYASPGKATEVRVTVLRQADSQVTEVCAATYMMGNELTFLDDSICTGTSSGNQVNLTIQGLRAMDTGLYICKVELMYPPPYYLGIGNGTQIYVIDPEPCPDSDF
Protocol: (§1) Assays were performed to determine the ability of antibody CT1E1 to inhibit CD80 and CD86 activity. A 96-well Ni-NTA plate was coated with 1 μg/mL recombinant human CD80 or CD86 with hexahistidine tag at room temperature for 1 h. Pre-mixed 30 μL serial 3-fold diluted IgGs (started from 25 μg/mL) and 30 μL of […] recombinant human CTLA4 (as human Fc fusion) and incubated the mixtures for 30 minutes, then washed the plate with PBS-Tween (PBST) 3 times. The mixtures were transferred 50 μL to the ELISA plate and incubated 30 min with shaking. The plate was washed 3 times with PBST, then horseradish peroxidase (HRP)-conjugated goat anti-human Fc (1:500 in casein) was added, then 3,3′,5,5′-Tetramethylbenzidine (TMB) was added as substrate and developed 30 min. 2M H₂SO₄ was used to stop the reaction and the OD was read at 450 nm.

mouse CTLA4/His = molecular target: T2, mouse CTLA4/His (mouse, UniProt P09793 36-162, limits assumed); assay: ELISA, CTLA4/His captured on Ni-NTA plate, antibody ~1 ug/mL, anti-human Fc-HRP
T2 construct: also called murine CTLA4; not shown: His tag
Protocol: Using a 96-well Ni-NTA plate recombinant human CTLA4/His, cynomolgus CTLA4/His or mouse CTLA4/His @ 1 μg/mL were captured. The plate was incubated for 30 min at room temperature, washed 3 times with PBS-Tween (PBST), then anti-CTLA4 antibodies (˜1 μg/mL) diluted in casein were added and incubated for 30 min with shaking. The plate was washed 3 times with PBST, horseradish peroxidase (HRP)-conjugated goat anti-human Fc (1:500 in casein) was added, then 3,3′,5,5′-Tetramethylbenzidine (TMB) was added as substrate and developed about 5 min. 2M H₂SO₄ was used to stop the reaction and the OD was read at 450 nm.

[2] = molecular target: T3, Recombinant human CTLA4/His (human, UniProt P16410 36-162, limits assumed); assay: SPR (BiaCore), antibody captured on anti-human Fc, His-tagged analyte, 1:1 model
T3 construct: not shown: His tag
T3 sequence (looked up): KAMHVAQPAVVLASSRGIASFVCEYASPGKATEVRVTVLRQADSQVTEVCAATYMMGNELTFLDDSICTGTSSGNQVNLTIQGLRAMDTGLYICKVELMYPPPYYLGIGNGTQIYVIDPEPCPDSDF
Protocol: The affinity of antibody CT1E1 for human CTLA4 was also determined using surface plasmon resonance (BiaCore). Anti-human Fc antibody (GE, BR-1008-39) was immobilized on CM5 sensor chip to approximately 1000 RU using standard NHS/EDC coupling methodology. Antibodies (about 10 μg/ml) were captured for 60 s at a flow rate 10 ul/min Recombinant human […] was serially diluted in running buffer (HBS-EP). All measurements were conducted in HBS-EP buffer with a flow rate of 30 μL/min. The antibody was diluted appropriately to obtain a series of concentrations. A 1:1 (Langmuir) binding model was used to fit the data. The Chi2 (chi-squared) value was used as a guideline for fitting quality. Results from the affinity studies are provided below in Table 2.

[3] = molecular target: T1, recombinant human CTLA4 (as human Fc …); assay: blocking ELISA: serially diluted IgG pre-mixed with recombinant human CTLA4-Fc, transferred to a Ni-NTA plate coated with His-tagged human CD86 (the blocked ligand); HRP anti-human Fc, OD 450
Protocol: as §1

IC50 [1]: 0.313 nM | binding result (mouse CTLA4/His): binds | Kd [2]: 1.81 nM | koff [2]: 0.000242 s⁻¹ | kon [2]: 133000 M⁻¹ s⁻¹ | IC50 [3]: 0.329 nM
B1: CT1E1 (antibody, V domains shown)
VH: EVQLVESGGGLVQPGRSLRLSCRGSNFNFDDLAISWVRQAPGKGLEWLGFVRSKAYGETTDYVASVKGRFTISRDDSKFIAWLQMDSLKTDDTAVYYCTTFNYWGQGTLVTVSS
VL: QPVLTQPPSVSVAPGKTARISCGGNNIASEAVHWYQKKPGQAPVLVIYYDSDRPSGIPERFSGSNSGNTATLRISRVDAGDEADYYCQVWDRTTDQPVFGGGTKLTVL
notes: also called human anti-CTLA4 antibody CT1E1
